This is an account of results in publication PMC3088709, “Phosphorylation of the Yeast γ-Tubulin Tub4 Regulates Microtubule Function” (PLoS ONE, 2011).

For this assay, the target named is T1, Spc97-3HA (S. cerevisiae, UniProt P38863 1-823).
T1 construct: Spc97, budding yeast; tagged with 3HA in the TUB4-AID strain; source: S. cerevisiae (TUB4-AID SPC97-3HA strain), in lysate
T1 sequence (looked up): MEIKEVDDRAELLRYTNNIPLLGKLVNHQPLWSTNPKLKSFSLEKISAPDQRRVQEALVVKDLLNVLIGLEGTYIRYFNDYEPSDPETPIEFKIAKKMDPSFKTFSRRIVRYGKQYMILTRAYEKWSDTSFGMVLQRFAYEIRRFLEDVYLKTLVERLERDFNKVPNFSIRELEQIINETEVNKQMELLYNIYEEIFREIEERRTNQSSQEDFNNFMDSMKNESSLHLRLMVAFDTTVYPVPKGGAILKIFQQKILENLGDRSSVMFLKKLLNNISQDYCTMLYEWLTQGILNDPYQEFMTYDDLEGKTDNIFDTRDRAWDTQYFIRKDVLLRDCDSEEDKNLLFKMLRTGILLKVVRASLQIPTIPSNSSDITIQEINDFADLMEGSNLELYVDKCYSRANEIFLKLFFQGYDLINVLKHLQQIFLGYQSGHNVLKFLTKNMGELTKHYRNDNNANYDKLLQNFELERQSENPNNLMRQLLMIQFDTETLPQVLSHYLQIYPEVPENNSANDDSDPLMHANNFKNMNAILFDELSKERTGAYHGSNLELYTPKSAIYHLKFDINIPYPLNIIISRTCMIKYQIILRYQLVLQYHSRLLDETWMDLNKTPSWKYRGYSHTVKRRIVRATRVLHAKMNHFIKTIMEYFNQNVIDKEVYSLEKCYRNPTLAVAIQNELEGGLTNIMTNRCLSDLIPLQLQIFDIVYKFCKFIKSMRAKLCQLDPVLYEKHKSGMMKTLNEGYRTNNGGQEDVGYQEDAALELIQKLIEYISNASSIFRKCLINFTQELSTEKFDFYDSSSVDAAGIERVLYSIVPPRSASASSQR
Briefly: co-IP; anti-HA immunoprecipitation of Spc97-3HA from lysates of TUB4-AID SPC97-3HA cells carrying pRS305 with TUB4, tub4-S74E, tub4-S100E or tub4-S360D, after 2 h of 0.5 mM IAA at 30°C to deplete Tub4-AID; blots with anti-Tub4, anti-Spc98, anti-Spc110 and anti-HA, normalised to precipitated Spc97-3HA. Particulars: partners not purified.

B1: Tub4-S74E (natural protein, S. cerevisiae, UniProt P53378 1-473, looked up)
chain: MGGEIITLQAGQCGNHVGKFLWSQLAKEHAIGTDGLSQLPDSSTERDDDTKPFFRENSRNKFTPRAIMMDSEPEVIADVENTFRGFFDPRNTWVASDGASAGNSWANGYDIGTRNQDDILNKIDKEIDSTDNFEGFQLLHSVAGGTGSGLGSNLLEALCDRYPKKILTTYSVFPARSSEVVVQSYNTILALRRLIEDSDATVVFDNASLLNISGKVFRNPNIDLQHTNQLISTIISSVTNSIRFPSYMYSSMSSIYSTLIPSPELHFLSPSFTPFTSDYIHDDIAHKGHSSYDVMLDLLDPSNSLVSTAMNNPTYFNVYNTIIGNVEPRQISRAMTKLQQRIKFPSWSSSAMHVNIGRRSPYLPLQPNENEVSGMMLSNMSTVVNVFENACNTFDKVFAKGAFLNNYNVGDLFQSMQNVQDEFAESREVVQSLMEDYVAAEQDSYLDDVLVDDENMVGELEEDLDADGDHKLV
notes: Tub4, gamma-tubulin of budding yeast, phospho-mimicking mutant; source: S. cerevisiae, from integrated pRS305-tub4-S74E, in lysate
B1: the “amount in complexes with Spc97-3HA relative to WT Tub4” value was ~75 % of WT Tub4.
